Reference: patent publication US20200407397A1 (published 2020)

Key:
recombinant LDHA [1] = molecular target: T1, recombinant LDHA (human, UniProt P00338 1-332)
recombinant LDHA [2] = molecular target: T1, recombinant LDHA; remark: listed apart in the source

- IC50 (recombinant LDHA [1]): 82.2 nM
- Ki (recombinant LDHA [2]): 57.4 nM
Binder: AQRMNTAFTP [FLCN-10 peptide]
